B1: DYRK1B (parent)
chain: ARKYFERLPGGGWTLRRTKELRKD
B2: TRAF3IP2 (parent)
chain: PGQPLPGASVRGLHPVQKVILNYP

Variants of: B1
Experiment: protein stability index of a GFP-peptide fusion (GPS, HEK-293T) (PSI 1-6); higher = more stable
Details: c terminus: a fixed tail appended
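Note: lentivirally expressed fusions sorted by FACS into six bins by GFP to DsRed ratio, PSI derived from sequencing read proportions per bin multiplied by bin number.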

Protein stability index of substitutions, site by site:
A1: G 3.78; D 4.11; I 2.47; K 4.13; M 2.84; H 3.66; Y 2.27; E 3.96; S 3.9; T 3.31; V 3.19; L 2.36; N 3.69; R 3.19; Q 3.7; F 2.44; P 2.89
R2: I 2.83; G 3.74; A 3.77; M 2.79; T 3.52; D 4.1; F 3.89; H 2.73; Q 3.33; K 4.25; N 3.55; S 4.28; L 2.96; E 4.64; C 3.03; P 4.56

Variants of: B2
Experiment: as above
Details: c terminus: a fixed tail appended

Protein stability index of substitutions, site by site:
G12: D 3.64; H 2.7; C 2.72; K 3.2; I 2.63; N 2.94; V 2.43; W 1.96; L 2.12; Y 2.74; P 3.14; E 3.87; M 2.85; S 3.39; F 2.3; A 3.69; Q 3.42; R 2.76
P15: G 2.76; V 2.02; D 3.53; C 2.13; Y 1.91; I 1.76; R 3.39; E 3.12; L 2.25; H 3.08; K 2.75; T 2.48; S 2.79; M 2.05; Q 3.85; A 2.29; N 2.92
Q17: H 2.9; E 2.95; W 1.87; G 3.1; R 3; P 3.51; C 2.52; M 2.43; I 2.24; F 1.26; T 2.81; Y 3.02; K 2.97; L 1.71; N 2.8; V 1.35; S 2.77; A 2.62
V16: L 2.57; D 4.08; A 3.24; M 2.72; R 3.49; C 2.93; T 3.36; H 3.03; N 3.61; P 2.66; W 2.54; E 3.44; I 3.09; S 3.46; F 2.83; Y 2.04; Q 3.63
V10: H 2.79; D 2.96; N 3.5; L 2.61; R 2.57; K 2.89; Y 3; A 3.52; G 3.54; Q 3.05; C 3.29; S 3; P 3.22; W 2.62; T 2.87; M 3; I 2.84; E 3.19; F 2.36
Y23: H 3.95; S 4.02; P 4.11; T 3.43; R 3.5; I 3.19; G 3.71; N 3.63; D 4.72; A 3.9; Q 4.07; C 3.42; M 3.36; E 3.86; F 3.45; V 3.26; L 2.71; W 2.52; K 4.43
L21: S 3.55; P 3.66; E 3.71; W 2.22; C 3.23; H 3.63; Y 3.24; F 2.79; N 3.6; M 3.45; T 3.71; Q 3.79; I 3.5; D 4.22; G 3.64; V 2.87; R 2.76; K 3.99
A8: N 3.47; I 2.83; S 3.27; Y 2.71; H 2.97; R 2.89; P 3.08; M 2.97; L 3.21; V 2.39; K 2.62; Q 2.59; T 3.65
R11: M 2.75; P 3.79; Q 3.79; A 2.6; H 3.51; T 3.2; C 3.3; W 2.08; V 2.84; G 2.73; K 2.88; F 2.06; D 3.71; S 3.12; E 3.19; N 2.96; L 2.25; I 2.96; Y 3.4
S9: Y 2.62; P 3.58; N 3.33; R 2.22; K 3.19; T 3.48; F 2.21; D 3.08; L 3.09; G 3.2; W 2.97; V 3.27; H 3.5; I 2.16; Q 2.86; M 2.68; E 2.92; A 3.99
H14: E 3.96; N 3.24; C 3.3; K 3.51; A 3.45; Q 3.67; F 2.61; I 3.04; S 3.19; T 3.29; Y 2.82; G 2.59; W 2.15; D 3.67; M 2.69; L 2.83; R 3.37; V 2.96; P 3.67
K18: P 2.99; A 2.64; M 2.72; T 3.38; L 2.31; H 2.85; F 2.3; Q 3.78; Y 2.52; C 2.09; W 2.76; G 3.57; N 2.65; R 2.64; V 2.02; D 3.6; I 2.08; S 3.27
V19: E 4.06; H 3.06; Q 3.71; S 3.09; T 3.59; P 3.29; N 3.59; A 3; L 3.23; W 3.38; M 2.74; I 3.26; R 2.82; K 3.32; C 3.16; Y 2.91; D 3.23; F 2.45
N22: M 2.3; T 3.05; F 1.59; R 4.18; P 3.44; L 1.83; C 2.51; E 3.51; G 2.54; Y 1.95; S 3.27; V 1.69; Q 2.98; H 2.49; A 2.74; D 3.13
P24: L 2.13; Y 1.79; T 2.71; Q 3.11; R 2.65; G 2.56; N 3.5; M 1.22; F 1.78; D 3.68; H 2.38; K 3.43; W 2.72; V 1.93; I 1.77; S 2.7; E 3.31; A 3.16; C 2.69
I20: P 3.36; R 3.89; K 4.01; H 2.95; C 3.25; M 3.42; V 2.93; T 3.03; S 4.67; F 3.38; Q 3.87; L 3.45; E 3.91; N 3.72; A 3.89; D 3.84
L13: M 3.59; H 3.75; V 2.85; P 3.84; N 3.36; Y 2.26; C 1.83; D 3.68; Q 3.69; A 3.38; S 3.42; T 3.56; W 3.02; R 3.68; E 3.9; K 3.5; F 2.91; I 3.1; G 3.31

Source: the supplement of paper PMC10567573
